The record followed here is patent US20230002728A1, “STEM CELL FATE ENGINEERING METHODS” (Wisconsin Alumni Research Foundation, priority 2021, published 2023).

What all share (format): cell-based, human
For assay [1], the system named is H9 hESCs. Description: Localized mesendoderm differentiation of hPSCs on adsorbed BMP4 patterns (BRACHYURY immunostaining, day 2). The note with it: for mesendoderm differentiation (BRA expression): two days in mTeSR1. The method, then:
[…] For glass surfaces, 1.5 ng/μl BMP4 solution was used. 5 ng/μl noggin solution was placed as a droplet to show an inhibitory effect of noggin on BMP4-induced mesendoderm differentiation. After washing, substrate was coated with Matrigel® for 2 hours as described above. Glass was coated with Matrigel® overnight. 0.025 mg/ml Synthemax (Corning, 3535) (final concentration, diluted in water) was added to a washed TC-treated plate and the plate was incubated for 2 hours at room temperature prior to cell seeding. 5 μg/ml truncated recombinant human vitronectin (Gibco, A14700) diluted in PBS was added to a washed TC-treated plate and the plate was incubated for 1 hour at room temperature prior to cell seeding. After ECM coating, the ECM solution was aspirated and hPSCs were singularized using Accutase (10 min incubation at 37° C.), resuspended in mTeSR1 supplemented with 5 μM Y-27632, and seeded at 5×10^5 to about 1×10^6 cells/cm^2 on coated substrates (day 0). On the next day (day 1), medium was changed with fresh mTeSR1. […]
For immunostaining of other protein markers, cells were fixed in 4% paraformaldehyde (Electron Microscopy Sciences, 15710-S) in PBS for 15 min at room temperature, washed with PBS three times, and incubated in diluted primary antibodies in 5% nonfat dry milk (Santa Cruz Biotechnology, sc-2324)/0.4% Triton X-100 (Fisher Scientific, BP151-500) PBS overnight at 4° C. […] After secondary antibody staining, the cells were washed with PBS three times, incubated in 2 μg/ml Hoechst 33342 diluted in PBS for 5 min at room temperature, washed with PBS two times, and analyzed under the fluorescence microscope. […]
Next, BMP4 solution was placed on TC-treated plates in various patterns (droplet, letters, circle, heart, and star), and hPSCs seeded onto the substrate in mTeSR1 maintenance medium. […] Since the presence of inhibitory morphogens is also important in developmental patterning, a BMP inhibitor, noggin, was evaluated for antagonism to localized BMP4-induced mesendoderm differentiation. […]

In assay [2] the test system is H9 hESCs. Description: Localized cardiomyocyte differentiation on BMP4 patterns (cTnT immunostaining, day 8). The note with it: 2.5 ng/μl BMP4 pattern, 5 μM IWP2 at day 3, day 8. The method, then: For localized cardiomyocyte (CM) differentiation, 2.5 ng/μl BMP4 solution was placed in PDMS stencil masks on a TC-treated plate. Matrigel® coating and hPSC seeding was performed as described above. At day 1 and day 2, medium was changed with fresh RPMI B27−. Afterwards, CM differentiation was performed based on the GiWi protocol (Lian et al. (2013) Nature protocols 8, 162-175). At day 3, cells were treated with 5 μM IWP2 in fresh RPMI B27−. At day 5, medium was changed with fresh RPMI B27−. At day 7, medium was changed with fresh RPMI B27+. At day 8, a beating phenotype of patterned CM derived from H9-hTNNT2-GFP hESC was recorded using a fluorescence microscope (Nikon, Eclipse Ti2-E) equipped with a heating stage top incubator (Tokai Hit, Tokai Hit STX Series Stage Top Incubator System). Cells were also immunostained for analysis at day 8.
Based on the results showing localized mesoderm differentiation on BMP-patterned substrates, mesodermal cells were examined to see if they could be further differentiated on these patterns into cardiomyocytes, a specialized mesodermal cell type. BMP4 patterns were used to direct mesoderm and Wnt inhibition by addition of IWP2 to the culture medium at day 3 to specify cardiac mesoderm and achieve patterned CM differentiation (FIG. 4A). The H9-hTNNT2-GFP hESC reporter line was used to visualize patterning of CMs in live cells. […]

In assay [3] the test system is H9 hESC-derived cardiac progenitor cells (CPCs). Description: Localized EpiC differentiation of hPSC-derived cardiac progenitors on morphogen droplets (WT1 immunostaining). To be noted: droplets on TC-coated PS plate, 7d after cardiac progenitor seeding. The method, then:
For localized EpiC differentiation, BMP4 (2 ng/μl)+Wnt3a (40 ng/μl) solution was placed in PDMS stencil masks either on a TC-treated plate or an ibidi 35 mm polymer dish. Matrigel® coating was performed as described above. Cryopreserved CPCs were thawed and seeded at 500,000-550,000 cells/cm^2 in LaSR medium (advanced DMEM/F12 (Gibco, 12634-010) supplemented with 60 μg/ml ascorbic acid (Sigma, A8960) and 2.5 mM Glutamax (Gibco, 35050-061)) supplemented with 5 μM Y-27632). Medium was changed daily with fresh LaSR medium until analysis. Time lapse imaging of CPCs derived from H9-hTNNT2-GFP hESC during localized EpiC differentiation was performed using a fluorescence microscope equipped with a heating stage top incubator. 18 days after CPC seeding, cells cultured on an ibidi polymer dish were immunostained and imaged using a confocal microscope (Nikon, A1R-SI+) for the analysis of sarcomere structure.
Spatial organization of cell fate commitment is important throughout development. […] These cardiac progenitors can further differentiate into CMs without any specific external signaling factors and can also differentiate into EpiCs upon activation of canonical Wnt signaling (Bao et al. (2016) Nature biomed. Eng. 1, 1-12).

B1: BMP4: human recombinant BMP4 (Invitrogen, PHC9534), morphogen adsorbed on the substrate (protein, UniProt P12644 293-408, looked up)
Bone morphogenetic protein 4: SPKHHSQRARKKNKNCRRHSLYVDFSDVGWNDWIVAPPGYQAFYCHGDCPFPLADHLNSTNHAIVQTLVNSVNSSIPKACCVPTELSAISMLYLDEYDKVVLKNYQEMVVEGCGCR
For the molecule B1, the “mesendoderm differentiation (BRA expression)” value is “induced localized mesendoderm differentiation” with H9 hESCs [1] (BMP4 droplets adsorbed on TC-treated PS, Matrigel coating) and “none of the BMP4 droplets induced mesendoderm differentiation” in the assay with H9 hESCs [1] (BMP4 droplets adsorbed on untreated PS surface). In the assay with H9 hESCs [1] (untreated PS surface, 0.1, 0.2, and 2.5 ng/ul BMP4 droplets), the “cell attachment on the patterned area” value is “partially or fully inhibited cell attachment”. Further, the “cardiomyocyte differentiation (cTnT)” value with H9 hESCs [2] is on record as “localization of CMs to the patterned area”. The “EpiC differentiation (WT1 expression)” value in assay [3] is reported as “limited if any EpiC differentiation”.
